We go through two substances from publication PMC7673040.

In experiment [1] the target is ribosome-nascent chain complex bearing the first ~90 amino acids of pPL(ss), labelled with BODIPY-FL on the nascent chain (bovine). As to the kind of experiment: other fluorescence titration; equilibrium FRET titrations of SRP^TMR into 1 nM RNC^BDP with unlabeled NAC premixed (0-400 nM for RNC(ss), 0-62.5 nM for RNC(ssmt)); global fit to the anti-cooperative co-binding model, Eq. (8); 25 °C, Assay buffer with 1 mg/mL BSA.

For experiment [2], the target named is ribosome-nascent chain complex bearing the first ~90 amino acids of pPL(ssmt), labelled with BODIPY-FL on the nascent chain (bovine) (UniProt P01239). The experiment is described as above.
Experiment [3] addresses ribosome-nascent chain complex bearing the first ~90 amino acids of pPL(ss), labelled with BODIPY-FL on the nascent chain (bovine). As to the kind of experiment: other fluorescence titration; equilibrium FRET titration: SRP^TMR titrated into 1 nM RNC^BDP; donor emission at 517 nm; fit to Eq. (4); 25 °C, Assay buffer with 1 mg/mL BSA; no NAC.
The target of experiment [4] is signal recognition particle (SRP), human, labelled with Cy3B on SRP54 (C47) (human) (UniProt P61011). As to the kind of experiment: stopped-flow FRET kinetics; as a1, on RNC(ssmt) of different nascent chain lengths, with 300 nM NAC; fit to a constant kon.
Experiment [5] shares this target. As to the kind of experiment: stopped-flow FRET kinetics; as a1, on RNC(ssmt) of different nascent chain lengths, no NAC; fit to a constant kon.
Experiment [6] shares this target. The experiment in a line: stopped-flow FRET kinetics; as a1, on RNC(ss) of different nascent chain lengths, no NAC; kon against nascent chain length fit to Eq. (18).
Experiment [7] shares this target. The experiment in a line: stopped-flow FRET kinetics; as a1 but on RNC(ssmt2) with 300 nM NAC.
For experiment [8] the target is unchanged. The experiment in a line: stopped-flow FRET kinetics; as a1 but SRP^Cy3B pre-incubated with 200 nM RNC(ssmt); no NAC, no HSW.
For experiment [9] the target is unchanged. As to the kind of experiment: stopped-flow FRET kinetics; as a1 but on RNC(ssmt) with 300 nM NAC (saturating).
Experiment [10] shares this target. The experiment in a line: stopped-flow FRET kinetics.
The target is the same in experiment [11]. The experiment in a line: stopped-flow FRET kinetics; as a1 but on RNC(ssmt2) with HSW(RRL).
For experiment [12] the target is unchanged. As to the kind of experiment: stopped-flow FRET kinetics; as a1, on RNC(ss) of different nascent chain lengths, with 300 nM NAC; kon against nascent chain length fit to Eq. (18).
The target is the same in experiment [13]. As to the kind of experiment: stopped-flow FRET kinetics; as a1 but on RNC(ssmt) with HSW(RRL) (high salt wash from 200 nM rabbit reticulocyte ribosome).
Experiment [14] shares this target. The experiment in a line: stopped-flow FRET kinetics; as a1 but on RNC(ssmt2); no NAC, no HSW.

On to “signal recognition particle (SRP), human, labelled with tetramethylrhodamine (TMR) at residue 12 of SRP54 (from UniProt P61011 1-504; P09132 1-144; P49458 1-86; P37108 1-136; Q9UHB9 1-627; O76094 1-671) (complex)”, for which the figures for the KD for NAC-bound RNC (α•Kd,SRP) in experiment [1] and in experiment [2] were 2.4 nM and 4.5 nM, respectively. The values for the dissociation constant Kd in [1] and in experiment [3] were 0.36 nM and 0.44 nM, respectively.

Turning to “soluble SRP receptor SRαβΔTM with the GTPase-deficient mutation SRα R458A, labelled with Atto647n (from UniProt P08240 1-638; Q9Y5M8 1-271) (complex)”, the kon worked out at 13000 M⁻¹ s⁻¹ in experiment [4], 570000 M⁻¹ s⁻¹ in experiment [5], 500000 M⁻¹ s⁻¹ in experiment [8] and 1e+06 M⁻¹ s⁻¹ in [10]. For the same substance, the kon,max (fit of kon against nascent chain length) in [6] amounted to 940000 M⁻¹ s⁻¹; in experiment [12] it was 1.3e+06 M⁻¹ s⁻¹. The kon,min (fit of kon against nascent chain length) came out at 400000 M⁻¹ s⁻¹ in experiment [6] and 22000 M⁻¹ s⁻¹ in [12]. In addition, the fold lower kon than on RNC(ss) in experiment [7] amounted to 100 fold; in experiment [9], 40 fold; in experiment [11] it was 100 fold; in experiment [14], 20 fold. The fold reduction of kon by HSW(RRL) in experiment [13] worked out at 20 fold.

In general, Kd refers to a measure of binding affinity in units of concentration. High values mean weaker binding, low ones tighter binding. By kon is commonly meant the rate constant with which the complex forms.
